Results reported in PMC12118636.
Like-named read-outs stand apart in the source and are kept apart here.

Key:
[1] = molecular target: hNaV1.9 IQ domain peptide (human); assay: ITC
[2] = molecular target: hNaV1.9 IQ domain peptide (human); assay: ITC; remark: listed apart in the source

Kd [1]: 480 µM
Kd [2]: 37 µM
Substance: Human calmodulin (from UniProt P0DP23 1-149) (natural protein)
